# Data: publication PMC9848473
# Substitutions are numbered along the chain they refer to. Numbers in names are those of the source.
# B1: Bacillus subtilis DarB E34R (natural protein)
# chain: MISLQSDQLLEATVGQFMIEADKVAHVQVGNNLRHALLVLTKTGYTAIPVLDPSYRLHGLIGTNMIMNSIFGLERIEFEKLDQITVEEVMLTDIPRLHINDPIMKGFGMVINNGFVCVENDEQVFEGIFTRRVVLKELNKHIRSLNK
# B2: Bacillus subtilis DarB E74G/R75G (natural protein)
# chain: B1 chain with R34E, E74G, R75G
# Biological target: Bacillus subtilis Rel N-terminal domain region (RelBs^NTD; residues 1 to 373) (B. subtilis)
# Test: ITC; DarB or DarB variant (200 uM) in the syringe titrated into RelBs^NTD or variant (15 uM) in the cell; 25 °C; 50 mM Hepes pH 7.5, 500 mM KCl, 500 mM NaCl, 10 mM MgCl2, 1 mM TCEP, 0.002% mellitic acid
row,Binder,Kd [µM]
1,B1,10.6
2,B2,8.9
